Results on two substances are retold here after patent US20230272045A1.

The target in test [1] is human plasma fibronectin (human) (UniProt P02751). As to the kind of experiment: ELISA. (In general: An ELISA detects its analyte on a solid surface through an enzyme-linked reagent.)
The target in test [2] is human vitronectin (human) (UniProt P04004). As to the kind of experiment: ELISA.
The target in the next test is human tenascin C (human) (UniProt P24821). As to the kind of experiment: ELISA.
A further test deals with fibrin matrix (UniProt P02671). As to the kind of experiment: cell-based or functional assay.

One may read the Kd as the constant that tells how readily two partners part at equilibrium.

Some results are limits rather than exact numbers.

Chain of fibrin matrix (P02671 other isoform, or with tags, fused parts or gaps, chain 1 of 3): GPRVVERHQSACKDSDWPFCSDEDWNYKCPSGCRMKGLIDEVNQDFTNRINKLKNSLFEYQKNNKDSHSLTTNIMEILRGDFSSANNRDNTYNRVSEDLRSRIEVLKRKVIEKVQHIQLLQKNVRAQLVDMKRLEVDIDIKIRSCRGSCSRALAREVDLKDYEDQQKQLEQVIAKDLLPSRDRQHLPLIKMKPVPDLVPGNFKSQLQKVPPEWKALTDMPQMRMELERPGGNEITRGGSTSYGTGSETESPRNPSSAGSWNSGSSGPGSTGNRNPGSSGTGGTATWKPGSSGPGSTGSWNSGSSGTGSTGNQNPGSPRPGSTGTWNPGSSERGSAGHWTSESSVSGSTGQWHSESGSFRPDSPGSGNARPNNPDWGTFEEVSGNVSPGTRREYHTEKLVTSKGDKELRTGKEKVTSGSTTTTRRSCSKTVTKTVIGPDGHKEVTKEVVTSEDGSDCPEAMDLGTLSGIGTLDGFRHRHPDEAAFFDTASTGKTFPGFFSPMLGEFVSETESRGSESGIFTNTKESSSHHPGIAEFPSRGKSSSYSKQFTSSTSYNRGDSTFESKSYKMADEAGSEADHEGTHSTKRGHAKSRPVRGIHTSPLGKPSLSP
Chain of fibrin matrix (P02675 45-491, chain 2 of 3, further chain): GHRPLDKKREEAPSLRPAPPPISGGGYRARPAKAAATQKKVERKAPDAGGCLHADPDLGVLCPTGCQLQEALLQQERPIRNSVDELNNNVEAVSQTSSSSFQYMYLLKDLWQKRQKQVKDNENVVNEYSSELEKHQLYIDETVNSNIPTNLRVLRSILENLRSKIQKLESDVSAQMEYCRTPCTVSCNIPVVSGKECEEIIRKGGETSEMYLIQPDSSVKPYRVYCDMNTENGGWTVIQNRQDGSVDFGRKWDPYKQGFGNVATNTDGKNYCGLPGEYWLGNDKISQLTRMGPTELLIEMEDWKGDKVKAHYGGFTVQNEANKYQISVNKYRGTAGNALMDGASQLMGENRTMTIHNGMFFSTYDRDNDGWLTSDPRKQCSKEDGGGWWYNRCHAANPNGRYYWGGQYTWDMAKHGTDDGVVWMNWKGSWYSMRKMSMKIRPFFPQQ
Chain of fibrin matrix (P02679 other isoform, or with tags, fused parts or gaps, chain 3 of 3, further chain): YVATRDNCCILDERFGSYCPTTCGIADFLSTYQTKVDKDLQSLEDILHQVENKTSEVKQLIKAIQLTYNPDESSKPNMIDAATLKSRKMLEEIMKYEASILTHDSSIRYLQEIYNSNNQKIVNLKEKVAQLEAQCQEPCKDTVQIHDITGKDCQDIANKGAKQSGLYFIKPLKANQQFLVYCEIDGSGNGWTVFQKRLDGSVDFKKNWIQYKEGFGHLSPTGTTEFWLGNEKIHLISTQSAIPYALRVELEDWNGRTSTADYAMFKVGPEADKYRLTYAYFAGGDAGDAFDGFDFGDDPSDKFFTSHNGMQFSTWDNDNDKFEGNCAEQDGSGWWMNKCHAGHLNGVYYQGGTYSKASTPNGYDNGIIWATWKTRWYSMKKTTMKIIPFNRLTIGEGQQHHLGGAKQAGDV
Chain of human plasma fibronectin (human) (P02751 other isoform, or with tags, fused parts or gaps): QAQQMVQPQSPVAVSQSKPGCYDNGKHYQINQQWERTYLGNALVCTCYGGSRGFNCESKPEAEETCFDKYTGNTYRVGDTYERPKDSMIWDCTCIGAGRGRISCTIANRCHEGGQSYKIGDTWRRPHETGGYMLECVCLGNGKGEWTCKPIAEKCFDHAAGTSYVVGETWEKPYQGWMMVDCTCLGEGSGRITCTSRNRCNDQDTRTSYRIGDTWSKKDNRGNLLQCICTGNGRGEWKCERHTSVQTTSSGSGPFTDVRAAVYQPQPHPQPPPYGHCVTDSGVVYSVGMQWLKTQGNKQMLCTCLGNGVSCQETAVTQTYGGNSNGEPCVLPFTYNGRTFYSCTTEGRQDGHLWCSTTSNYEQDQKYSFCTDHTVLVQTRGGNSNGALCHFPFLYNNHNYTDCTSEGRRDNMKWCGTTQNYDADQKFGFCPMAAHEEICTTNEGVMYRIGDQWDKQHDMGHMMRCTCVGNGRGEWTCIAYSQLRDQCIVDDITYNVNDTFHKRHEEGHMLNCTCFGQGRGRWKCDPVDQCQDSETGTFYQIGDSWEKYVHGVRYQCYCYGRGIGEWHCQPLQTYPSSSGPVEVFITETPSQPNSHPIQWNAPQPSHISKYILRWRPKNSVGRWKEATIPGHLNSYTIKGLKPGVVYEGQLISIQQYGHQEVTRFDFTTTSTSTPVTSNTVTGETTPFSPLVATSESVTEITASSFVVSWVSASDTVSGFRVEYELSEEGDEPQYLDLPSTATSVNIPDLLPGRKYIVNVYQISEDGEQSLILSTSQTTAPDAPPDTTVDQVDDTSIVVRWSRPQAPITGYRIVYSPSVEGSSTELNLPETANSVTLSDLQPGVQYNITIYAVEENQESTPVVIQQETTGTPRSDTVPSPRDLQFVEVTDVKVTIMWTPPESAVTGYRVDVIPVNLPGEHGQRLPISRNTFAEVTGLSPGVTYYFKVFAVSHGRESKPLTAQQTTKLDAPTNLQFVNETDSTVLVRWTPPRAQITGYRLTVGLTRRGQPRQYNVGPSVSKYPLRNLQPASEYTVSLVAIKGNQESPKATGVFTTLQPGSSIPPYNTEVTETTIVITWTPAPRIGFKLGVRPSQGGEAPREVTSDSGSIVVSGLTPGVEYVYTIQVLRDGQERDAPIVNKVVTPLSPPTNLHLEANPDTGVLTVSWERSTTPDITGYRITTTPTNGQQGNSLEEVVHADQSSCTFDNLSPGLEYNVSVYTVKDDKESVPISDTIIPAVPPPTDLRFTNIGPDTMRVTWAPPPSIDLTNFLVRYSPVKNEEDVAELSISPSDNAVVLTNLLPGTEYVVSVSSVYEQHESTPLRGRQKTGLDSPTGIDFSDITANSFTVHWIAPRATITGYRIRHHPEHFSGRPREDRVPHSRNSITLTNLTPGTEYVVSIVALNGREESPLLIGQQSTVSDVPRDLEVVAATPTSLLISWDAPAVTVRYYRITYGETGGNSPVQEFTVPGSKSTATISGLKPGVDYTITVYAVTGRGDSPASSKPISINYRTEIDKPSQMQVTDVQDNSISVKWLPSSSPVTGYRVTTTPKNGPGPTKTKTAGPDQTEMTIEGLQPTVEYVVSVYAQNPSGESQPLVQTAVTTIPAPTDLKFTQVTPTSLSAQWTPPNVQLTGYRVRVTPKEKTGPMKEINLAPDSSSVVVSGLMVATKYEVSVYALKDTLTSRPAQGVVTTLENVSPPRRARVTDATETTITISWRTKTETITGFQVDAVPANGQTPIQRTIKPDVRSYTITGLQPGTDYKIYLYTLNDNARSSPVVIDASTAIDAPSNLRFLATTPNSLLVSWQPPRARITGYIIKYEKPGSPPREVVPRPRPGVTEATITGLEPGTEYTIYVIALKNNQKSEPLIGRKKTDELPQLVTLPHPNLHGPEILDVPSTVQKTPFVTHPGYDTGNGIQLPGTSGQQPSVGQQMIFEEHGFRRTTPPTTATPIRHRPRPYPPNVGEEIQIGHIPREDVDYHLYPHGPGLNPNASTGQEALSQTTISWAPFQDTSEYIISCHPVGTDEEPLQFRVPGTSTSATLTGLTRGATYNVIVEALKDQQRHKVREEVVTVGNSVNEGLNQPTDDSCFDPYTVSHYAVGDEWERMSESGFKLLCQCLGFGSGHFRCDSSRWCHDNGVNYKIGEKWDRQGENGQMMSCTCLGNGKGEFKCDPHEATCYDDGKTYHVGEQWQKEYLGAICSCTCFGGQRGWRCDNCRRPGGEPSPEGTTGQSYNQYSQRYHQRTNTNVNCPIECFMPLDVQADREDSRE
Chain of human vitronectin (human) (P04004 20-478): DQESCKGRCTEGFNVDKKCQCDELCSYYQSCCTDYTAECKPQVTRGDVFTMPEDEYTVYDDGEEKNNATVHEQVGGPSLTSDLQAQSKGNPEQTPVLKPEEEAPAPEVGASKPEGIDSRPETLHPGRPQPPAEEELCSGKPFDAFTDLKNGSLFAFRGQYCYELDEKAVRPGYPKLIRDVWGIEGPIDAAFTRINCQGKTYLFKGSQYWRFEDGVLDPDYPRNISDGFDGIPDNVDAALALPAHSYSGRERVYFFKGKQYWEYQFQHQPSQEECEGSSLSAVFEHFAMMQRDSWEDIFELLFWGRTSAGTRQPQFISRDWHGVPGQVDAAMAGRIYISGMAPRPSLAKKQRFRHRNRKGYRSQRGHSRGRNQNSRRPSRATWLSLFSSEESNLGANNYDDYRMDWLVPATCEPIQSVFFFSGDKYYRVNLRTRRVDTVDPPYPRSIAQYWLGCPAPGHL

For “AREG126-138/PDGF-BB (from UniProt P31240 80-190)”, the Kd in test [1] is 7.9 nM; in test [2], 1.9 nM; with human tenascin C (human), 18.1 nM.

In the case of “PIGF-1 (from UniProt P49763 19-149) (ligand)”, the release from a fibrin matrix (fraction of the protein dose released) with fibrin matrix is over 60%.
